Assay results taken from PMC2253824, “The Human TPR Protein TTC4 Is a Putative Hsp90 Co-Chaperone Which Interacts with CDC6 and Shows Alterations in Transformed Cells” (PLoS ONE, 2008).
Positions count from the first letter of the chain named.

T1: Drosophila Cdc6, two-hybrid fusion (Drosophila, UniProt Q9VSM9 1-662)
T1 construct: Cdc6 of Drosophila; construct not described; Two-hybrid fusion; also called DmCdc6; source: yeast two-hybrid fusion
T1 sequence (looked up): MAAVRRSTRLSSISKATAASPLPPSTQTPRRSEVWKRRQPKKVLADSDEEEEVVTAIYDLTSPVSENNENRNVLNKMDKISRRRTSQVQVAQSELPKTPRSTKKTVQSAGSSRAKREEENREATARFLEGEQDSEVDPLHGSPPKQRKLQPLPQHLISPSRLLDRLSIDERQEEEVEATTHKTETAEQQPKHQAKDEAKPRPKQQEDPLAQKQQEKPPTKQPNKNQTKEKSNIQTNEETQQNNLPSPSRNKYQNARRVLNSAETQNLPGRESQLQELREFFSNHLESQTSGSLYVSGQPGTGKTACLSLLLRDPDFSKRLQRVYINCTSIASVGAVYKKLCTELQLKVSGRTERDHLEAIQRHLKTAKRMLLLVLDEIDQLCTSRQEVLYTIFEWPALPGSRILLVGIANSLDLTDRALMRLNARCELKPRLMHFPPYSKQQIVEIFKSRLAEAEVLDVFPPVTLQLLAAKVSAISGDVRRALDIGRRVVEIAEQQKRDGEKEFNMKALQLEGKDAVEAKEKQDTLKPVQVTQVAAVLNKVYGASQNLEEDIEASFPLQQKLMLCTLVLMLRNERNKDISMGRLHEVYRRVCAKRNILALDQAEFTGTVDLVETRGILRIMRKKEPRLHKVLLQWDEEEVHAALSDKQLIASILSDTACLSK

T2: human CDC6, two-hybrid fusion in pEG202 (human, UniProt Q99741 1-560)
T2 construct: CDC6, human; clone from A. Dutta, cloned in the BamH1 and Not1 sites of pEG202; also called HuCDC6; hCDC6; source: yeast two-hybrid fusion
T2 sequence (looked up): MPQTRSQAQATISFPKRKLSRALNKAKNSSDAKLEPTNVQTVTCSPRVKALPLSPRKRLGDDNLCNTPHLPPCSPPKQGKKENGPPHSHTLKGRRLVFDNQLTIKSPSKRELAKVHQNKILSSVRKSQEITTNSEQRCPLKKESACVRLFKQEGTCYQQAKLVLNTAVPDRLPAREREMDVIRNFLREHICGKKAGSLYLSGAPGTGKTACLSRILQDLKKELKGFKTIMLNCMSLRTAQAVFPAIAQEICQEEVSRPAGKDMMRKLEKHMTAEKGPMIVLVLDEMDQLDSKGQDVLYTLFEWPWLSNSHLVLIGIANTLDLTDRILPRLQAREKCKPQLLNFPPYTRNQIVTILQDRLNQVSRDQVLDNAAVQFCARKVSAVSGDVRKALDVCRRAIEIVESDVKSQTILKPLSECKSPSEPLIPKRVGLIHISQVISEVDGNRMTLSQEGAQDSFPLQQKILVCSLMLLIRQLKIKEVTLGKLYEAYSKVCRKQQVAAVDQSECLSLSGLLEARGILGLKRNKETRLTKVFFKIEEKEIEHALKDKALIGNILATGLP

T3: human DNA polymerase alpha large subunit, two-hybrid fusion (human, UniProt P09884 1-1462)
T3 construct: DNA polymerase alpha large (catalytic) subunit, human; Two-hybrid fusion; also called HDPa; source: yeast two-hybrid fusion
T3 sequence (looked up): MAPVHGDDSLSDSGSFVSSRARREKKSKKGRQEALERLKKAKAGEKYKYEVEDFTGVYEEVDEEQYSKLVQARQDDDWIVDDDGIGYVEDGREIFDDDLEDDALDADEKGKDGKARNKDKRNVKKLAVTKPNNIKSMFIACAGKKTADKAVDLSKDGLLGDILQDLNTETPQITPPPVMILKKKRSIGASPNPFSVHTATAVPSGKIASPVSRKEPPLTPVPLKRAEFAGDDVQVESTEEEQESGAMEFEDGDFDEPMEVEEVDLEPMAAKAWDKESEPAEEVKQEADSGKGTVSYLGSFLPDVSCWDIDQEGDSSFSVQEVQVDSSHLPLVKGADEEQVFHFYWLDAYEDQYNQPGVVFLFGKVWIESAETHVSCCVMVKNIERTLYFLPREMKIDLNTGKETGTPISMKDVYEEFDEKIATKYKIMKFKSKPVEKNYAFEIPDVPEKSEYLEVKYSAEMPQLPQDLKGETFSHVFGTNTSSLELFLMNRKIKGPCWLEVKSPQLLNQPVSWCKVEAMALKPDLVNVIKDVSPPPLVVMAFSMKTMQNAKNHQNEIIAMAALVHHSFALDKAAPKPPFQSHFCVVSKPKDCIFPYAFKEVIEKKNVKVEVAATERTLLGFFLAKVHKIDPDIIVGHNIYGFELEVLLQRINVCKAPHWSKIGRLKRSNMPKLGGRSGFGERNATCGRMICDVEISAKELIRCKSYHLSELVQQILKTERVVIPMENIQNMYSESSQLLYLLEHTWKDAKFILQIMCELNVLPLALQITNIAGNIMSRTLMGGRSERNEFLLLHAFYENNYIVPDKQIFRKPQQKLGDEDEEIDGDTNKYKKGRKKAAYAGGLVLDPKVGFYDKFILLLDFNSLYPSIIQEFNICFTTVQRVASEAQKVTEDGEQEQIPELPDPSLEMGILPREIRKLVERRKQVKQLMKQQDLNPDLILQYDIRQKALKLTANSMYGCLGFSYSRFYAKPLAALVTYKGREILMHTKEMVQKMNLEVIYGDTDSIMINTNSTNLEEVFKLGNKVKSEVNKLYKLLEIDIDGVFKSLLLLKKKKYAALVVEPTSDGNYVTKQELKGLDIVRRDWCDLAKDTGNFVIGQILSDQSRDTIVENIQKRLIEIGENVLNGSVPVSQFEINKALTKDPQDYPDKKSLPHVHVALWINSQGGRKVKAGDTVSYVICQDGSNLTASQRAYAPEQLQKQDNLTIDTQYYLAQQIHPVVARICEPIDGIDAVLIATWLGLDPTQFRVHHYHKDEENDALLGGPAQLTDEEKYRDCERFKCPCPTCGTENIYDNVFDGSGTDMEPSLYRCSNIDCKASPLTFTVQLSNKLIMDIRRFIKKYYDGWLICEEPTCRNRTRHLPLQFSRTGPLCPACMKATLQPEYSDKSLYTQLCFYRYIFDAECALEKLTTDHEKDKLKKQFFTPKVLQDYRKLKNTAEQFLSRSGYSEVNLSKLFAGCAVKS

B1: human TTC4, two-hybrid fusion in pJG4.5 (natural protein, UniProt O95801 1-387, looked up)
chain: MEQPGQDPTSDDVMDSFLEKFQSQPYRGGFHEDQWEKEFEKVPLFMSRAPSEIDPRENPDLACLQSIIFDEERSPEEQAKTYKDEGNDYFKEKDYKKAVISYTEGLKKKCADPDLNAVLYTNRAAAQYYLGNFRSALNDVTAARKLKPCHLKAIIRGALCHLELKHFAEAVNWCDEGLQIDAKEKKLLEMRAKADKLKRIEQRDVRKANLKEKKERNQNEALLQAIKARNIRLSEAACEDEDSASEGLGELFLDGLSTENPHGARLSLDGQGRLSWPVLFLYPEYAQSDFISAFHEDSRFIDHLMVMFGETPSWDLEQKYCPDNLEVYFEDEDRAELYRVPAKSTLLQVLQHQRYFVKALTPAFLVCVGSSPFCKNFLRGRKVYQIR
notes: TTC4 (tetratricopeptide repeat protein 4), human; full length gene, insert amplified and cloned in the EcoR1 and Xho sites of pJG4.5; source: yeast two-hybrid fusion
B2: TTC4-651-TA (217NK), two-hybrid fusion in pJG4.5 (natural protein, human, UniProt O95801 1-387, looked up)
chain: B1 chain with N217K
notes: TTC4, human, with a point mutation reported in melanoma samples, made by site-directed mutagenesis in TTC4 (pJG4.5); also called TTC4 codon 217 N to K; source: yeast two-hybrid fusion
B3: TTC4-125TA (42VD), two-hybrid fusion in pJG4.5 (natural protein, human, UniProt O95801 1-387, looked up)
chain: B1 chain with V42D
notes: TTC4, human, with a point mutation reported in melanoma samples, made by site-directed mutagenesis in TTC4 (pJG4.5); also called TTC4 codon 42 V to D; source: yeast two-hybrid fusion
B4: TTC4-201TG (67IM), two-hybrid fusion in pJG4.5 (natural protein, human, UniProt O95801 1-387, looked up)
chain: B1 chain with I67M
notes: TTC4, human, with a point mutation reported in melanoma samples, made by site-directed mutagenesis in TTC4 (pJG4.5); also called TTC4 codon 67 I to M; source: yeast two-hybrid fusion
B5: TTC4-230AC (77EA), two-hybrid fusion in pJG4.5 (natural protein, human, UniProt O95801 1-387, looked up)
chain: B1 chain with E77A
notes: TTC4, human, with a point mutation reported in melanoma samples, made by site-directed mutagenesis in TTC4 (pJG4.5); also called TTC4 codon 77 E to A; source: yeast two-hybrid fusion

molecular target: T4, Drosophila Hsp90, two-hybrid fusion (Drosophila, UniProt P02828 1-717); assay: two-hybrid; TTC4 with Drosophila proteins; data not shown; conditions: partners not purified
T4 construct: Hsp90 (Hsp83) of Drosophila; construct not described; Two-hybrid fusion; also called DmHsp90; source: yeast two-hybrid fusion
T4 sequence (P02828 whole entry, the tested form may be a part): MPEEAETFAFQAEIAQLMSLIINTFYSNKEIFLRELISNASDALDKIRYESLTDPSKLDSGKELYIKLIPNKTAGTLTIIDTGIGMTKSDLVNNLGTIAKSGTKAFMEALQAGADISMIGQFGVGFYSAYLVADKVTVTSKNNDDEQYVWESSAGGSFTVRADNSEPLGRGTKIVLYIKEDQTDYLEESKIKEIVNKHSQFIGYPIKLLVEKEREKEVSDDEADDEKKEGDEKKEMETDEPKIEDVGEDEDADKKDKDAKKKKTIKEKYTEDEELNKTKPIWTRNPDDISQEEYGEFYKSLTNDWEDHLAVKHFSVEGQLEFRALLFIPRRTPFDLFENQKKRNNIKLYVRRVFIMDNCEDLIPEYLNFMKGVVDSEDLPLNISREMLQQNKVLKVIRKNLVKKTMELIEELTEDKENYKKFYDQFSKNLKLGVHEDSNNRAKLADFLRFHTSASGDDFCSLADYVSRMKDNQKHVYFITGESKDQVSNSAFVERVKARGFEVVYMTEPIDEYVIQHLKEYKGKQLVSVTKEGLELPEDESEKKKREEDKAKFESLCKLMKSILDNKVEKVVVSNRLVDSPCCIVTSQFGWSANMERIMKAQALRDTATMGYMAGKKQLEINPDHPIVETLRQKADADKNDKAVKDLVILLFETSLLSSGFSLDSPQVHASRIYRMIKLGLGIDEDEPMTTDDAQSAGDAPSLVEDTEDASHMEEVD

Binder | two-hybrid strength relative to TTC4 with huHSP90 [%]
B1 | 50

molecular target: T1, Drosophila Cdc6, two-hybrid fusion; assay: as above; conditions: partners not purified

Binder | two-hybrid strength relative to TTC4 with human CDC6 [%]
B1 | 50

molecular target: T5, human HSP90 protein 1 beta (HSPCB), two-hybrid fusion in pEG202 (human, UniProt P08238 1-724); assay: two-hybrid; quantitative liquid beta-galactosidase assays; values as a percentage of the cdc6/TTC4 interaction; conditions: partners not purified
T5 construct: HSP90 protein 1 beta (HSPCB), human full length cDNA clone from Origene, cloned in the Not1 and Xho1 sites of pEG202; also called HuHSP90; huHSP90; source: yeast two-hybrid fusion
T5 sequence (P08238 whole entry, the tested form may be a part): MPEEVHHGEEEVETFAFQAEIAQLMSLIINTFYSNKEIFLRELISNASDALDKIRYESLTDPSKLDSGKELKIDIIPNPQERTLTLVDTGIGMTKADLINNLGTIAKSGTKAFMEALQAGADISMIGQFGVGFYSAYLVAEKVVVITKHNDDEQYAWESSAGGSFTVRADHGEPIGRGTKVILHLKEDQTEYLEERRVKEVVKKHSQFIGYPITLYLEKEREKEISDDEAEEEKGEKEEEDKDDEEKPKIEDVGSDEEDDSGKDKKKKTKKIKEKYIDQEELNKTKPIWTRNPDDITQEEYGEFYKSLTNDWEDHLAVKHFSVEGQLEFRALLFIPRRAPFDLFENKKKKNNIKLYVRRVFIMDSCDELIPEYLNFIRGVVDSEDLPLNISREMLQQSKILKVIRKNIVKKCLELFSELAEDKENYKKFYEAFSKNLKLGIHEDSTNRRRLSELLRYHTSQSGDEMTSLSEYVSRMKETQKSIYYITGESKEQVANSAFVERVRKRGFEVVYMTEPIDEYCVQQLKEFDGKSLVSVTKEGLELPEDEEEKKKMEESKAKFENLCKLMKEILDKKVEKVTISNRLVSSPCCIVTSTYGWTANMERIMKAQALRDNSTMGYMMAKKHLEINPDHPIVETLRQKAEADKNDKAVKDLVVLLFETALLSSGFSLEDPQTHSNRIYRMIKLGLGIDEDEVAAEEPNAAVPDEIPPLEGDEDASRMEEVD

Binder | two-hybrid beta-galactosidase, percentage of the cdc6/TTC4 interaction [%]
B1 | 100
B2 | 90
B3 | 80
B4 | 90
B5 | 75

molecular target: T6, human HSP70 protein 8 (HSPA8), two-hybrid fusion in pEG202 (human, UniProt P11142 1-646); assay: as above; conditions: partners not purified
T6 construct: HSP70 protein 8 (HSPA8), human full length cDNA clone from Origene, cloned in the BamH1 and Xho1 sites of pEG202; also called HuHSP70; source: yeast two-hybrid fusion
T6 sequence (P11142 whole entry, the tested form may be a part): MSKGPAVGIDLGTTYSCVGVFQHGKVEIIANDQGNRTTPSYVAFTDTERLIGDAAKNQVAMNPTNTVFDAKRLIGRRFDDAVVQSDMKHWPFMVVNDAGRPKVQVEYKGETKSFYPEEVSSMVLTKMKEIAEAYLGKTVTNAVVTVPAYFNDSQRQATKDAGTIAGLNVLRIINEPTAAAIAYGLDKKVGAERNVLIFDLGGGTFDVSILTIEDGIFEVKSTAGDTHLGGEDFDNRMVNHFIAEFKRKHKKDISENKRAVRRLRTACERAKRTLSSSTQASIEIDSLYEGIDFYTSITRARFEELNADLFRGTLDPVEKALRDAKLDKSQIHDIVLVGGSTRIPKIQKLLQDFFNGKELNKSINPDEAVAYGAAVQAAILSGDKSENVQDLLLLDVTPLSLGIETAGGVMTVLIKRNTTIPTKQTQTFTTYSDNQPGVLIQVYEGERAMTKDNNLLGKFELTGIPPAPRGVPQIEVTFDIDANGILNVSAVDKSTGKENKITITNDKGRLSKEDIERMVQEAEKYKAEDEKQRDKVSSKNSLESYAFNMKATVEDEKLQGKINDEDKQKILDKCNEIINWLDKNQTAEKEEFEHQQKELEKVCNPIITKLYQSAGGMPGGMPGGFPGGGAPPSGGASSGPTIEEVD

Binder | two-hybrid beta-galactosidase, percentage of the cdc6/TTC4 interaction [%]
B1 | 80
B2 | 70
B3 | 65
B4 | 70
B5 | 70

molecular target: T2, human CDC6, two-hybrid fusion in pEG202; assay: as above; conditions: partners not purified

Binder | two-hybrid beta-galactosidase, percentage of the cdc6/TTC4 interaction [%]
B1 | 100
B2 | < 5
B3 | 95
B4 | 95
B5 | < 5

molecular target: T3, human DNA polymerase alpha large …; assay: as above; conditions: partners not purified

Binder | two-hybrid beta-galactosidase, percentage of the cdc6/TTC4 interaction [%]
B1 | < 5
